Laboratory results reported in the nanobody polyreactivity screen of Harvey et al. (2022).

Assay: yeast display, Sf9 membrane polyspecificity reagent, FACS + sequencing; frameworks hold sequencing errors
Method in brief: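 Nanobodies came from a synthetic yeast display library in Saccharomyces cerevisiae BJ5465, induced with galactose for 36–48 hours and stained for 1 hour at 4 °C with 10% biotinylated, detergent-solubilized Sf9 membrane reagent. Cells were enriched on streptavidin microbeads and then FACS-sorted, with low and high (top ~1%) gates set on anti-HA fluorescence for expression and streptavidin fluorescence for reagent binding. Each polyreactivity label reflects the gate a clone came from. Genes were amplified by colony PCR, sequenced by MiSeq 2 × 250 and filtered by CDR length.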

Sequence | polyreactivity (PSR sort gate)
QVQLVESGGGLVQAGGSLRLSCAASGLTFSYYAMGWYRQAPGKERELVAAISSSGGSTYYADSVKGRFTISRDYAKNTVYLQMTSLKPEDTAVYYCATAASPVRKRYDYWGQGTQVTVSS | high polyreactivity
QVQLVESGGGLVQAGGSLRLSCAASGSISIVYTMGWYRQAPGKERELVATISWSGGNTYYADSVKGRFTISRDYAKNTVYLQMNSLKPEDTAVYYCAARWYYYPLLYDYWGQGTQVTVSS | low polyreactivity
QVQLVQSRGVLVQAGGSLRLSCAASGSIFKYNAMGWYRQAPGKERELVAAITYSGGSTYYADSVKGRFTISRDNAKNTVYLQMNSLKPEDTAVYYCNAYRRFSAFDYWGQGTQVTVSS | high polyreactivity
QVQLVESGGGLVQAGGSLRLSCAASGRTFQSYAMGWYRQAPGKERELVASITSGASTNYADSVKGRFTISRDNAKNTVYLQMNSLKPEDTAVYYCARRIGHGSRPYWLETWRYPYDYWGQGTQVTVSS | low polyreactivity
QVQLVESGGGLVQAGGSLRLTCAASGSTFSDYAMGWNRQAHGKERELVAGITGGGGTYYADSVKGRFTISRDNAKNTVYLQMNSLKPEDTALYYCAAGRRHGLGYWGQGTLVTVSS | low polyreactivity
QVQLVESGGGLVQAGGSLRLSCAASGSIFIRNAMGWYRQAPGKERELVASISRSGAYTRYADSVKGRFTISRDNAKNTVYLQMNSLKPEDTAVYYCAVRLVNYLSYWRTYNYWGQGTQVTVSS | high polyreactivity
QVQLVESGGVLVQAGGSLRLICAASGSIFGWNTKGWYRQSAGKERELVAGITRGGSTYYADSVKGRFTISRDNAKNTVYLQMNRQKPEDTAVYYCAALVYRAWEFEFWGQGTQVTVSS | high polyreactivity
QVQLVESGGGLVQAGGSLRLSCAASGSIIVRYAMGWYRQAPGKERELVASISKRGGSTYYADSVKGRFTISRDNAKNTVYLQMNSLKPEDTAVYYCAARVVTRVRGVGYNYWGQGTQVTVSS | high polyreactivity
QVQLVESGGGLVQAGGSLRLSCAASGIIFGRYAMGWYRQAPGKERELVAAINGSGGSTYYADSVKGRFTISRDNAKNTVYLQMNSLKPEDTAVYYCAVVYYGSIFVLEYDYWGQGTQVTVSS | high polyreactivity
QVQLVESGGGLVQAGGSLRLSCAASGNIFYVYAMGWYRQAPGKEREFVAAIRGSGGSTYYADSVKGRFTISRDNAKNTVYLQMNSLIQEDTAVYYCDAVAWEGSGSEMYSWGQGTQVTVSS | low polyreactivity
QVQLVESGGGLVQAGGSLRLSCAASRLIFRGNDMGWYRQAPGKERELLAGINSSGSTNYADSVKGRFTISRDNAKNTVYLHMNSLKPEDTAVYYCAARAIVSFDYWGQGTQVTVSS | low polyreactivity
QVQLVESGGGLVQAGGSLRLSCAASGSIFSYYAMGWYRQAPGKERELVAAISQSGGTTYYADSVKGRFTISRDNAKNTVYLQMNSLKPEDTAVYYCAARAPSSFDTQYYYWGQGTQVTVSS | low polyreactivity
QVQLVESGGGLVQAGGSLRLSCAASGFIFTRNVMGWYRQAPGKERELVAGITYTSGSTYYADSVKGRFTISRDNAKNTVYLQMNSLKPEDTAVYYCAAEITRHYVFGDDYWGQGTQVTVSS | low polyreactivity
QVQLVESVGGLVQAGGSHRLSCAASGSIFYYYDMGWYRQGPGKERELFAAINRGVGSTFYADSVKGRFTISRENAKNTVYLQMNSLKPEDTAVDYCSSRWYSRTRAYNYWGQGTQVTVSS | low polyreactivity
QVQLVESGGGLVQAGGSLRLSCAASGSIFTNAMGWYRQAPGKERELVAAISSSGGSTYYADSVKGRFTISRDNAKNTVYLQMNSLKPDDTAVYYCAADHYGCRDFWGQGSQVTVSS | low polyreactivity
QVQLVESGGGLVQAGGSLRLSCAASGSTFWVNVMGWYRQAPGKERELVATITSGGRTNYADSVKGRFTISRDNAKNTVYLQMNSLKPADTAVYDCAADLKRGDLMDYWGQGTQVTVSS | low polyreactivity
QVQVVESGGGLVQAGGSLRLSCAASGFTFILYAMGWYRQAPGKERELVAAISWSGGRTYYADSVKGRFTISRDNAKNTVYLQMNSLKPEDTAVYYCNAPYWTSKSRFDYWGQGTQVTVSS | low polyreactivity
QVQLVESGGGLVHAGGSLRLSCAASGITFSRNTMGWYRQAPGKERELVAAITLRGGGRTYYADSVKGRFTISRDNAKNTVYLQMISLKPEDTAVYYCAARYLVTFGHQQRYFYWGQGTHVTVSS | high polyreactivity
QVQLVESGGGLVQAGGSLRLSCAASGRTFTPNAMGWYRQAPGKERELVASIRRGTSTYYADSVKGRFTISRDNAKNTVYLQMNSLKPEDTAVYYCAARPFVPRVGTYSYYWGQGTQVTVSS | high polyreactivity
QVQLVESGGGLVQAGGSLRLSCASSGNIFVPNAMGGYRQAPGKERELVAAIRRGGSTNYADSVKGRFTISRDNAQNTVDGQMNSLKPEDTAVYYCAKSRVSFTDLEGYYWGQGTQVTVSS | low polyreactivity
QVQLVESGGGLVQAGGSLRLSCAASGFTLTQNAMGWYRQAPGKERELVAAISRSGGRTYYADSVKGRFTISRDNAKNTVYLQMNSLKPEDTAVYYCNAYVTYPGTTMDDWGQGTQVTVSS | high polyreactivity
QVQLVESGGGLVQAGGSLRLSCAASGSTFWPYAMGWSRQAPGKERELVARINSGGNTNYADSVKGRFTISRDNAKNTVYLQMNSLKPEDTAVYYCAVRSLYEPRVYYRWVVVDGNYLGQGTQVTVSS | low polyreactivity

Sequence | polyreactivity (PSR sort gate)
QDQLVDSGGGLVQAGGSLRLSCAASVRTFDRYAMGWYRQAPGKVRELVAAISGRGGSTYYADSVKGRFTISRDNAKNTVYLQMNSLKPEDTAVYYCAARGSLWGAPSDYYYCGQGTQVTVSS | high polyreactivity
QVQLVESGRGLVQAGGSLRLSFAASGITFGPNEMGWYRQAPGKERELVAAISKSGGTTYYADSVKGRFTISRDNAKNTDYLQMNSLKPEDTAVYYCAARCYPYYASFRYDYWGQGTQVTVSS | high polyreactivity
QVQLVESGGGLVQAGGSLRLSCAASGSIFIVYAMGWYRQAPGKERELVATITSGGSTNYADSVKGRFTISRDNAKNTVYVQMNSLKPEVTAVYYCAAESYWGSGVVPGYDYWGQGTQVTVSS | low polyreactivity
QVQLVESGGGLVLAGGSLRLSCAASGSILEGYVMGWYRQAPGKERELVAAISRGGGSTYYADSVKGRFTISRDNAKNTVYLQMNSLKPEDTAVYYCAARFAASYYWGQGTQVTVSS | high polyreactivity
QVQLVESGGGLVQAGGSLRLSCAASGSTFYINAMGWYRQAPGKERELVAAITSGGSTNYADSVKGRFTISRDNAKNTVYLQMNSLKPEDTAVYYCAKVSYYPWRYDYWGQGTQVTVSS | low polyreactivity
QVQLVESGGGLVQAGGSLRLSCAASGSTFGRYVMGWYRPAPGKERELVAAISKNAGSTYYADSVKGRFTISRDNAKNTVYLQMNSLKPEDTAVYYCNAQSFREYGYWGQGTQVTVSS | high polyreactivity
QVQLVESAGGLVQAGGSLRLSCAASGSISGYAMGWYRQAPGKQRELVAAISRRGGSTYYADSVKGRFTISRDNEKNTVYLQMNSLKPEDTAVYFCAADPYTRQPNSDRYYWGQGTQVTVSS | high polyreactivity
QVQLVASGGGLVQAGGSLRLSCAASGSIFRFNPMGWSRHEPGKERELVAAISQSGSSTYYADSLKGRFTISRDNAKNTVYLQMNSLKPEDTAVYYCNVYTYQPYRMDLWRQGTQVTVSS | high polyreactivity
QVQLVESGGGLVQAGGSLRLSCAASGRTFESNAMGWYRQAPGKERELVASITDGGSTNYADSVKGRFTISRDNAKNTVYLQMNSLKPEDSAVYYCNVTKRGSLWSVPDQTYDYWGQGTQVTVSS | low polyreactivity
QVHLVESGGGLVQAGGSLRLSCAASGSIFSDYAMGWYRQAPGKERELVAAITWSGGSTYYADSVKGRFTISRDNAKNTVYLQMNSLKPEDTAVYYCAARFGKVRDFRYAYLLEYDYWGQGTQVTVSS | low polyreactivity
QVQLVESGGGLVQAGGSLRLSCAASGRIFYPYAMGWYRQAPGKESEFVAAIRWSSGSTYYADSVKGRFTISRDNAKNTVYLQMNSLKPEDTAVYYCAAEGYDSYSYDYWGQGTQVTVSS | high polyreactivity
QVQLVESGGGLVQAGGSLRLSCAASGRTFDWYVMGWYRQAPGKERELVASIRGTGSTYYADSVKGRFTISRDNAKNTVYLQMNSLKPEDTAVYYCAARPGYLYSKYNYWGQGTQVTVSS | high polyreactivity
QVQLVESGGGLVQAGGSLRLSCAASGRTIKYYAMGWDRQAPGKERELVAVISWSGGSTYYADSVKGRFTISRDNAKNTVYLQMISLKPEDTAVYYCNAYVYAYYAGYNYWGQGTQVTVSS | high polyreactivity
QVQLVESGGGLVQEGGSLRLSCAASGFSFERNAMGWDRQAPGKERELVATIPWSGTRTNYADSVKGRFTISRDNAKNTVYVQMNSLKPEDTAVYYCAVVVSAPSRESKSTVQMDYWGQGTQVTVSS | high polyreactivity
QVQLVESGGGLVQAGGSLRLSCASSGFIFPWNAMGWYRQAPGKERELVADISTGTSRTYADSVKGRFTISRDNAKNTVYFQMNSLKPEDTAVYYFNKAHNYKYDWGQGTQVTVSS | low polyreactivity
QVQLVESGGGLVQAGGSLRLSCAASGRIFGPNAMGWYRPAPGKERELVAAISTRDGSTSYADSVKGRFTISRDNAKNTVYLQMNSLKPEDTAVYYCAKRWPYWYRVTQYDNVDYWGQGTQVTVSS | low polyreactivity
QVQLGESGGGLVQAGGSLRLSCAASGRTSTGYAMGWYRQAPGKERELVAGIDKIGGRTYYADSVKGRFTISRDNAKNTVYLQMNSLKPEDTAVYYCAKTRYFSVGTHWDYYYWGQGTQVTVSS | high polyreactivity
QVQLVESGGGLVQAGGSLRLSCAASGITFRGYAMGWYRQAPGKERELVASITNTDSTYYADSVKGRFTISRDNAKNTVYLQMNSLKPEDTAVYYCAARRGRKYGYWGQGTQVTVSS | high polyreactivity
QVQLQESGGGLVQAGGSLRLSCAASGTILYSLGMGWYRQAPGKRREFVASITWGTTTNYAESVKGRFTISRDNAKNTVYPQMNSLKPEDTAVYDCAAPPFGDSSYHYWGQGTQVTVSS | low polyreactivity
QVQLVESGGGLVQAGGSLRLSCAASGFIFYDYAMGWYRQAPGKERELVAAIRSSDGGTYYADSEKGPFTISRDNAKNTVYLQMNSLKPEDTAVDYCAAEIRWGWHPYYDYDEYWGQGTLVTVSS | low polyreactivity
QVQLVESGGGLVQAGGSLRLTCAASGSITSINAMGWYRQAPGKERELVAAINWSSGSTYYADSVKGRFTISRDYAKNTVYLQKISLKPEDTAVYYCAVDRYFFAGYYGYEYWGQGTQGTVSS | high polyreactivity
